For orientation: Kd means the equilibrium constant for the complex coming apart.

“And” between values parts separate entries of the source, which are not always exact repeats. Equal values may be shown once. Read-outs that look alike come from different tables or passages of the source.

Here are results for 14 substances from patent US20090136936A1.

The target in test [1] is PA-FITC (PA antigen of Bacillus anthracis) (Bacillus anthracis) (UniProt P13423).
The target of test [2] is extracellular domain of glycosylated FcγRIIa (R&D systems), FITC-labeled (human) (UniProt P12318). Kind of test: flow cytometry of spheroplasts displaying the Fc, labelled with FcγRIIa-FITC.
Test [3] concerns the target Recombinant human FcγRI/CD64, extracellular domain, glycosylated (human) (UniProt P12314). Kind of test: flow cytometry of spheroplasts displaying the Fc clone, labelled with FcγRIa-FITC; the value is repeated on D00019 and D00020.
Test [4] has as its target Protein A-FITC (Staphylococcus aureus) (UniProt P38507).
Test [5] has the same target. The source holds these as a separate data set.
For test [6] the target is unchanged. Kind of test: flow cytometry (FL1-Height) of spheroplasts labelled with Protein A-FITC; medium TB, 0.5M Trehalose.
For test [7] the target is unchanged. Kind of test: flow cytometry (FL1-Height) of E. coli spheroplasts labelled with Protein A-FITC; APEx displayed Fc [panel a].
For test [8] the target is unchanged. Kind of test: flow cytometry (FL1-Height) of spheroplasts labelled with Protein A-FITC; medium 'TB, 0.5M Soribitol'.
Test [9] has the same target. Kind of test: flow cytometry (FL1-Height) of spheroplasts labelled with Protein A-FITC; medium TB. In general terms: In flow cytometry, cells or beads pass a laser one at a time.
Test [10] has the same target. Kind of test: flow cytometry (FL1-Height) of E. coli spheroplasts labelled with Protein A-FITC; no Fc expressed [panel a].
For test [11] the target is unchanged. Kind of test: flow cytometry (FL1-Height) of E. coli spheroplasts labelled with Protein A-FITC; one plasmid, no cJun(Cys) anchor co-expressed [panel b].
The target is the same in test [12]. Kind of test: flow cytometry (FL1-Height) of E. coli spheroplasts labelled with Protein A-FITC; Fc-cFos(Cys) co-expressed with the inner-membrane anchor NlpA-cJun(Cys)-FLAG; the same histogram stands in both panels [panels a and b].
Test [13] shares this target. Put plainly: flow cytometry (FL1-Height) of E. coli spheroplasts labelled with Protein A-FITC; one plasmid, no cJun anchor co-expressed [panel b].
Test [14] shares this target. Put plainly: flow cytometry (FL1-Height) of E. coli spheroplasts labelled with Protein A-FITC; Fc-cFos co-expressed with the inner-membrane anchor NlpA-cJun-FLAG [panel a].
For test [15], the target named is Recombinant human FcγRI/CD64, extracellular domain, glycosylated (human) (UniProt P12314). Kind of test: SPR (BIAcore 3000), FcγRIa immobilized on CM-5. (Surface plasmon resonance follows binding to a sensor surface in real time, without labels.)
Sequence of Recombinant human FcγRI/CD64, extracellular domain, glycosylated (human) (P12314 16-292): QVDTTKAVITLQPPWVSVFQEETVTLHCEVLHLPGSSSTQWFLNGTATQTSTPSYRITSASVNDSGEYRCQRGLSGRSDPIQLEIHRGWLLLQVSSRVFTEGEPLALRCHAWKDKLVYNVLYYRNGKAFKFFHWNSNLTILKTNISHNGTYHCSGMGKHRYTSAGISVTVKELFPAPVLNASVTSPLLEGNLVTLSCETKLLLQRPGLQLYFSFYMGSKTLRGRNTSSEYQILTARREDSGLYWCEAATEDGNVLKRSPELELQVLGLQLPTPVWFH

Sequence of PA-FITC (PA antigen of Bacillus anthracis) (Bacillus anthracis) (P13423 30-764 limits assumed): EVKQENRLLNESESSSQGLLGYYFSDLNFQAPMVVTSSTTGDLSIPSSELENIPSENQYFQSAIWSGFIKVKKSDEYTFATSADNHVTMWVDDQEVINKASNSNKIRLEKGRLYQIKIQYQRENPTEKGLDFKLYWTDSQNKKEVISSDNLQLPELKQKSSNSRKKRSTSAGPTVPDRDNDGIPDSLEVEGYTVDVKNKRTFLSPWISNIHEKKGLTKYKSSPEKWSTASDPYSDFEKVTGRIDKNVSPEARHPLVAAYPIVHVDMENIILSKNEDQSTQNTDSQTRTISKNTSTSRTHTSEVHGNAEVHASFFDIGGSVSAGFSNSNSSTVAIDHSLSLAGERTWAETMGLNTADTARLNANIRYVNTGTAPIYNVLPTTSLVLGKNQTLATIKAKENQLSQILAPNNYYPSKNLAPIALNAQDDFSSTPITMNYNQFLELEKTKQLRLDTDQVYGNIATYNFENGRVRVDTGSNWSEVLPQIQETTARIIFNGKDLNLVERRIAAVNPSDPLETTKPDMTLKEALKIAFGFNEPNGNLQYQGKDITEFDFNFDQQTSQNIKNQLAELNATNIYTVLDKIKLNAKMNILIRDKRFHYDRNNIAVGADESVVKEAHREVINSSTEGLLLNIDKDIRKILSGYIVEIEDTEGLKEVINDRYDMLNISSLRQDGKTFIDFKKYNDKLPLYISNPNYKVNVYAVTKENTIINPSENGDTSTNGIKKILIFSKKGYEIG
Sequence of extracellular domain of glycosylated FcγRIIa (R&D systems), FITC-labeled (human) (P12318 34-217): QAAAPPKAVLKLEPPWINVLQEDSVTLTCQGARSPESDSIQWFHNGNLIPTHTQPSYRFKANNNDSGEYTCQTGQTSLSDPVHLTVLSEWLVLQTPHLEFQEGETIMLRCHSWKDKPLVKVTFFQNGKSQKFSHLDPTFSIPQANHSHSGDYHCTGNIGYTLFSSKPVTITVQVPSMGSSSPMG

As for 26-10 IgG1 (anti-digoxin) (antibody), the Mn (mean fluorescence intensity) in test [1] is 13.9.
On the same count and under the same terms, the same measure for 26-10 scAb (anti-digoxin): 14.7; for 26-10 scFv (anti-digoxin): 16.3.
Regarding “Fc5 (E382V, M428I), aglycosylated Fc mutant (from UniProt P0DOX5 223-449)”, the M (mean fluorescence intensity) in test [2] came out at 66.7.
For “Fc117 (E382V, M428I, Y436A), aglycosylated Fc mutant (from UniProt P0DOX5 223-449)”, in test [3], the FACS mean value is 391.
Turning to M18 scFv (PelB fused, anti-PA), the M (mean fluorescence intensity) in [4] is 40 and 62.9; in test [5], 43.
In test [1], M18.1 humanized IgG1 (antibody) showed a Mn (mean fluorescence intensity) of 164.
M18.1 humanized scAb displayed a Mn (mean fluorescence intensity) in test [1] of 277.
Substance M18.1 humanized scFv registered a Mn (mean fluorescence intensity) in test [1] of 313.
For the substance NlpA-Fc-His, the Mn (mean fluorescence intensity) was 3130 in test [6], 2410 in test [7], 1290 in test [8] and 1080 in [9].
The substance NlpA-cJun(Cys)-FLAG displayed a Mn (mean fluorescence intensity) in test [10] of 111.
PelB-Fc-cFos(Cys)-His: the Mn (mean fluorescence intensity) stood at 879 in test [11] and 733 in [12].
Consider PelB-Fc-cFos-His, for which the Mn (mean fluorescence intensity) in test [13] was determined as 837; in test [14], 244.
On to “commercially available glycosylated human IgG1 (antibody)”, for which the dissociation constant Kd in [15] came to 18 nM.
